Patent US20240409624A1

How the values were obtained:
[1] = target: 0N4 R tau K298 mutated to alanine (human) (UniProt P10636); assay: flow cytometry on fixed, permeabilised Expi293 cells expressing the mutant, 10 µg/ml VR7082
[2] = target: 0N4 R tau V300 mutated to alanine (human) (UniProt P10636); assay: as above
Sequence of 0N4 R tau V300 mutated to alanine (human) (P10636 other isoform, or with tags, fused parts or gaps, change not shown): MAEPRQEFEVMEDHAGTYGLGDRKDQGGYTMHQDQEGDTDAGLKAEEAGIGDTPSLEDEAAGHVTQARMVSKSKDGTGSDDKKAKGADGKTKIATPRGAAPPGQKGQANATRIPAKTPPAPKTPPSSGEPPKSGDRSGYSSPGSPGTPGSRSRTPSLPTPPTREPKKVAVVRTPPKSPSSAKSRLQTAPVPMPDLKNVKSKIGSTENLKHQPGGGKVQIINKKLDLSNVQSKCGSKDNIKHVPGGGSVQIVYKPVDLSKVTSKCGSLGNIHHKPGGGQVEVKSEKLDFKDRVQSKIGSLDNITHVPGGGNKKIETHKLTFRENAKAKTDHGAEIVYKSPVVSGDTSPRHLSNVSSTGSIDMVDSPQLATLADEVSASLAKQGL

Sequence of 0N4 R tau K298 mutated to alanine (human) (P10636 other isoform, or with tags, fused parts or gaps, change not shown): as above

decrease of binding relative to 0N4 R tau [1]: 50%
decrease of binding relative to 0N4 R tau [2]: 50%
B1: VR7082 rabbit IgG (antibody, V domains shown)
VH: QSVEESGGRLVTPGTPLTLTCTVSGIDLSNYAMIWVRQAPGEGLEYIGIISSTGNTFYATWAKGRFTISKTSTTVDLKITSPTAEDTATYFCARDTNSDSHYGWEAFNIWGPGTLVTVSS
VL: AVVLTQTPASVEAAVGGTVSINCQASEDIESYLAWYQQKPGQRPKLLIYRASTLASGVSSRFKGSGSGTEYTLTISGVECADAATYYCQEGYSIHVDNVFGGGTEVVVK
